PMC4803053

Molecular target: DSB nucleosomes (position of the break not stated; EMSAs of Figures 5A and 6A) (human) (UniProt P0C0S8)

hexasome formation in EMSA with DSB nucleosomes, against wild-type hMid–AID: 2 fold
Substance: hMidm1m2–AID (Δ746–751/S813A/E829A/R847A/Q849A/L852A/K853A/N854A/D856A) (from UniProt Q9Y5B9 644-988) (domain or fragment)
